Key:
[1] = system: O=P(O)(O)OC[C@@H](O)[C@H]1O[C@@H](OP(=O)(O)O)[C@@H](O)[C@@H](O)[C@@H]1O; experiment: steady-state kinetics; format: biochemical, Bordetella bronchiseptica; conditions: Mg2+; pH 7.5; 25.0 °C
[2] = system: O=P(O)(O)OC[C@@H](O)[C@H]1O[C@H](OP(=O)(O)O)[C@@H](O)[C@@H](O)[C@@H]1O; experiment: steady-state kinetics; format: biochemical, Bordetella bronchiseptica; conditions: Mg2+; pH 7.5; 25.0 °C
[3] = substrate: O=P(O)(O)OC[C@@H](O)[C@H]1O[C@@H](OP(=O)(O)O)[C@@H](O)[C@@H](O)[C@@H]1O; experiment: purified protein; format: biochemical, Escherichia coli; conditions: Mg2+ C([…])phosphate selectively removed; pH 7.5; 25.0 °C
[4] = substrate: O=P(O)(O)OC[C@@H](O)[C@H]1O[C@H](OP(=O)(O)O)[C@@H](O)[C@@H](O)[C@@H]1O; experiment: purified protein; format: biochemical, Escherichia coli; conditions: Mg2+ C([…])phosphate selectively removed; pH 7.5; 25.0 °C
[5] = substrate: O=P(O)(O)OC[C@@H](O)[C@H]1O[C@@H](OP(=O)(O)O)[C@@H](O)[C@@H](O)[C@@H]1O; experiment: steady-state kinetics; format: biochemical, Bacteroides thetaiotaomicron; conditions: Mg2+; pH 7.5; 25.0 °C
[6] = substrate: O=P(O)(O)OC[C@@H](O)[C@H]1O[C@H](OP(=O)(O)O)[C@@H](O)[C@@H](O)[C@@H]1O; experiment: steady-state kinetics; format: biochemical, Bacteroides thetaiotaomicron; conditions: Mg2+; pH 7.5; 25.0 °C
[7] = substrate: O=P(O)(O)OC[C@@H](O)[C@H]1O[C@@H](OP(=O)(O)O)[C@@H](O)[C@@H](O)[C@@H]1O; experiment: steady-state kinetics; format: biochemical, Mesorhizobium japonicum; conditions: Mg2+; pH 7.5; 25.0 °C
[8] = substrate: O=P(O)(O)OC[C@@H](O)[C@H]1O[C@H](OP(=O)(O)O)[C@@H](O)[C@@H](O)[C@@H]1O; experiment: steady-state kinetics; format: biochemical, Mesorhizobium japonicum; conditions: Mg2+; pH 7.5; 25.0 °C

D-glycero-D-manno-heptose-1β,7-bisphosphate phosphatase (GmhB) (Bordetella bronchiseptica RB50)
Km [1]: 6.9 ± 0.5 µM
kcat [1]: 22 ± 0.5 s⁻¹
kcat/Km [1]: 3.2e+06 M⁻¹ s⁻¹
Km [2]: 280 ± 30 µM
kcat [2]: 5.9 ± 0.2 s⁻¹
kcat/Km [2]: 21000 M⁻¹ s⁻¹

B1: D-glycero-D-manno-heptose-1,7-bisphosphate phosphatase (GmhB) (Escherichia coli K-12) (protein)
chain: MAKSVPAIFLDRDGTINVDHGYVHEIDNFEFIDGVIDAMRELKKMGFALVVVTNQSGIARGKFTEAQFETLTEWMDWSLADRDVDLDGIYYCPHHPQGSVEEFRQVCDCRKPHPGMLLSARDYLHIDMAASYMVGDKLEDMQAAVAANVGTKVLVRTGKPITPEAENAADWVLNSLADLPQAIKKQQKPAQ
Km [3]: 5.0 ± 0.1 µM
kcat [3]: 35.7 ± 0.2 s⁻¹
kcat/Km [3]: 7e+06 M⁻¹ s⁻¹
Km [4]: 67 ± 1 µM
kcat [4]: 4.6 ± 0.1 s⁻¹
kcat/Km [4]: 70000 M⁻¹ s⁻¹

B2: D-glycero-D-manno-heptose-1,7-bisphosphate phosphatase (GmhB) (Bacteroides thetaiotaomicron VPI-5482) (protein)
chain: MRLQDIDVTGFETLLLDRDGVVNRLRPDDYVKKWEEFEFLPGVLEILKAWNTHFKYIFIVTNQRGVGKEIMSEEDLKHIHERMISEVKNYGGRIDRIYYCTALTDSDINRKPGIGMFLQILRDYPDIDKAKCLMIGDSDSDIKFAKNCGIVGIKVI
Km [5]: 86 ± 1 µM
kcat [5]: 13 ± 1 s⁻¹
kcat/Km [5]: 150000 M⁻¹ s⁻¹
Km [6]: 33 ± 1 µM
kcat [6]: 29 ± 1 s⁻¹
kcat/Km [6]: 880000 M⁻¹ s⁻¹

B3: D-glycero-D-manno-heptose-1,7-bisphosphate phosphatase (GmhB) (Mesorhizobium japonicum MAFF 303099) (protein)
chain: MADKTGTPHPLTEPGVWIERIGGRVFPPHLPALFLDRDGTINVDTDYPSDPAEIVLRPQMLPAIATANRAGIPVVVVTNQSGIARGYFGWSAFAAVNGRVLELLREEGVFVDMVLACAYHEAGVGPLAIPDHPMRKPNPGMLVEAGKRLALDLQRSLIVGDKLADMQAGKRAGLAQGWLVDGEAAVQPGFAIRPLRDSSELGDLLAAIETLGRDNRS
Km [7]: 13 ± 0.2 µM
kcat [7]: 18 ± 0.2 s⁻¹
kcat/Km [7]: 1.4e+06 M⁻¹ s⁻¹
Km [8]: 58 ± 1 µM
kcat [8]: 4.4 ± 0.1 s⁻¹
kcat/Km [8]: 76000 M⁻¹ s⁻¹

From publication PMC2844805
